From patent US20220306729A1
Residue numbers refer to the chain shown, from its start.

B1: Z053 (BRA138_65) (antibody, V domains shown)
VH: QLQLQESGPGLVKPSETLSLTCTVSGGSISSYNYYWGWIRQPPGKGLEFIGSIYYTGSTYYNPSLRSRVTISVDTSKNQFSLKLTSVTAADTAVYYCARHGPGMGHNWYFDLWGRGTLVTVSS
VL: EIVLTQSPATLSLSPGERATLSCRASQSISSYLAWYQQKPGQAPRLLIYDASNRAPGIPARFSGSGSGTDFTLTISSLEPEDFAVYYCQQRSTWLTFGGGTKVEIK
B2: Z036 (BRA112_91) (antibody, V domains shown)
VH: EVQLLESGGDLVQPGGSLRLSCAASGFTFSTYGMAWVRQAPGKGLEWLSSISSVDDSKYYAASVKGRFTISRDNSRNTLYLHMNSLRVDDTAVYYCAKDRIPHGLGELYANWGQGTLVTVSS
VL: DIQMTQSPSTLSASVGDRVTITCRASQSISGWLAWYQQKPGKAPRLLMHKASNLYSGVPSRFSGSGSGTEFTLTISSLQPDDFATYYCQHYHSYPYTFGQGTKVEIK
B3: Z059 (MEX84_p4-34) (antibody, V domains shown)
VH: EVQLVQSGAEVKTPGSSVKVSCKTSGGTFSNFAITWVRQAPGQGLEWMGGIIPLFGITNYTQKFQGRVTITTDESKTTAYMDLSGLRSEDTAVYFCARGRDSSGRLLDHWGQGTLVTVSS
VL: EIVMTQSPATLSVSPGERATLSCRASQTVNRNLAWYQQKPGQAPRLLIYAASARATGVPARFSGSGSGTEFTLTISSLQSEDFVVYYCQQYNNWPPLTFGGGTKLEIK
B4: Z016 (MEX84_p2-55) (antibody, V domains shown)
VH: QVQLVQSGAEVKKPGASVKLSCKASGYTFTSYYVHWVRQAPGQGLEWMGIINPGNNFVSFAQNFYDRATMTRDTSTNTVYMELTNLQSEDTAVYYCARTLVAPSAQSMYYFDFWGQGTLVTVSS
VL: EIVLTQSPGTLSLSPGERGTLSCRASQYITTGHFAWYQQKPGRAPRLLIYGASVRATGVPDRFSGSGAETDFTLTISRLDPEDVGVYYCQQYGSSPVTFGPGTKVDIK
B5: Z056 (MEX84_p2-94) (antibody, V domains shown)
VH: EVQLVQSGAEVKKPGASVKVSCKASGNTFMGYYFHWVRQAPGQGLEWMGWINPNSGHANIAQTFQGRVTMTRDPSITTAYMELSRLRSDDTAVFYCARGGMLGQLWALDNWGQGTLVTVSS
VL: DIQMTQSPSTLSASVGDRVTITCRASQSISHWLAWYQQRPGEAPKLLIYQASTLESGVPSRFSGSGSGTEFTLSISSLQPDDFATYYCQQYQSSPYTFGQGTKLEIK
B6: Z061 (BRA112_36) (antibody, V domains shown)
VH: EVQLVESGGGVVQPGRSLRLSCAASGFTFSISTIHWVRQAPGKGLEYVVVISHDGNTKYYADSVKGRFIISRDNSKNTVFLQMNSLRPVDTAVYYCARGEVGYFDLWGRGTLVTVSS
VL: EIVLTQSPATLSLSPGERATLSCRASQSVSSFLAWYQQKPGQPPRLLIYDASTRATGIPARFSGSGSGTDFTLTISSLEPEDFAVYYCQQRSNWPPITFGQGTRLEIK
B7: Z005 (MEX18_13) (antibody, V domains shown)
VH: EVQLLESGGGLVQPGGSLRLSCAASGFTFSSYAMSWVRQAPGKGLEWVSSFSGIDDSTWYADSVKGRFTISRDNSKSTLYLQMNSLRAEDTAVYYCAKDRLVRGFAEVLDYWGRGTLVTVSS
VL: DIQMTQSPSSLSASVGDRVTITCRASQDISKYLAWYQQRPGKVPNLLIYTASTLQSGVPSRFSGSGSGTHFTLTISSLQPEDVATYYCQKYNSVPWTFGQGTKVEIK
B8: Z050 (BRA138_28) (antibody, V domains shown)
VH: QVQLVQSGAEVKKPGSSVKVSCKAPGGTFSRYSIAWVRQAPGQGLEWMGGINPTFTTPNYAQKFQGRVTITADESTNTAYLDLSSLRSEDTAVYYCARFRYYYESGGYSDASPYYLDYWGQGTLVTVSS
VL: EIVLTQSPATLSLSPGERVTLSCRASQSVSSYLAWYQQKPGQAPRLLIYDASNRATGIPARFTGSGSGTDFTLTISSLEPEDFAVYYCQQRSNWPLTFGGGTKVEIK
B9: Z002 (MEX18_27) (antibody, V domains shown)
VH: EVQLLESGGGLVQPGGSLRLSCATSGFTFSTYAMSWVRQAPGKGLEWVSSFSGVDDSTYYAESVKGRFTISRDNSKNTVYLQMTRLRAEDTAVYYCAKDRGPRGVGELFDSWGQGTLVTVSS
VL: DIQMTQSPSTLSASVGDRVTMTCRASQSINRWLAWYQQKPGKAPKLLIYTTSTLKSGVPSRFSGSGSGTEFTLTISSLQPDDFATYYCQHFHSVPWTFGQGTKVEIK
B10: Z011 (MEX105_15) (antibody, V domains shown)
VH: EVQLLESGGGLVQPGGSLRLSCAASGFTFRTYAMSWVRQPPGKGLEWVSSISAREDSTYFAASVRGRFTISRDNSKNTLYLQMNNLRAEDTALYYCAKDRLQLGVGELYESWGQGTLVTVSS
VL: B9 VL with M21I, S28N, R31S, T50M, T51A, T53S, K55Q, I75V, F91Y, V94Y
B11: Z003 (MEX18_58) (antibody, V domains shown)
VH: EVQLLESGGGLVQPGGSLRLSCATSGFTFTTFAMSWVRQAPGKGLEWVSSISGADDSTYYAASVKGRFTISRDNSRSTLFLQMNSLRAEDTAVYYCAKDRGPRGVGELFDSWGQGTLVTVSS
VL: B9 VL with M21I, N30S, R31K, K45R, H92F
B12: Z034 (BRA112_09) (antibody, V domains shown)
VH: EVQLLESGGGLAQPGGSLRLSCETSGFTFRSYGMGWVRQAPGKGLEWVSSIYISGDSTYYAASVKGRFTISRDNSKSTLYLQMDRLTAEDTAVYYCVRDRIQGGFGELYRYWGQGTLVTVSS
VL: B9 VL with I29V, R31K, T50E, T53I, K55E, P59S, F91Y, S93G, V94Y
B13: Z057 (MEX84_p4-54) (antibody, V domains shown)
VH: EVQLVQSGAEVKRPGASVKVSCKASGYTFADYYIHWVRQAPGLGLEWMGWINPKTGFSHYEQTFQGRVTMARDTSIPAAYMELSSLKSDDTAIYYCARGGRINVAEALRYWGQGSLVTVSS
VL: DIQMTQSPSTLSTFVGDRVTITCRASQTIGDWLAWYQQKPGKAPKLLISKATRLESGVPSRFSGSGSETEFSLTINSLQPDDVAAYYCQQYMSYPWTFGQGTKLEIK
B14: Z062 (BRA112_70) (antibody, V domains shown)
VH: EVQLVESGGGVVQPGRSLRLSCAASGFSFSSHAMYWVRQAPGKGLEWVAIVSYDGSTKNYADSVKGRFTISRDNSKNTIYLHLNSLRAEDTAVYFCAREVDGIYGYLHYWGQGTLVTVSS
VL: EIVLTQSPATLSLSPGERATLSCRARQNVRNFLAWYQQKPGQAPRLLIYDASNRATDIPARFSGSGSGTDFTLTISSLEPEDFAVYYCQQRSYSITFGQGTRLEIK
B15: Z055 (MEX84_p4-61) (antibody, V domains shown)
VH: EVQLVQSGAEVKKPGASVKVSCKASGYTFSGYYIHWLRQAPGQGLEWMGWINSNSGGADSGPRFHGRVTMTRDTSINTAYLELTNLRSDDTAVYYCARRTYYDTRFPYWYFDLWGRGTLVTVSS
VL: AIRMTQSPSSLSASVGDRVTITCRASQDIGSYLNWYQQKPGKAPNVLISAASTLQSGVPSRISGIGSGTDFTLTISSLQPEDFATYYCQQSLSAPYTFGQGTKLEIK
B16: Z052 (BRA138_62) (antibody, V domains shown)
VH: QVQLQESGPGLVKPSQTLSLTCTVSGGSITGGVYYWNWIRHHPGKGLEWIGYMFYSGDTDYNPSLRSRVTISGDTSKNKFSLNLNSVTAADTAVYYCARAGFDYGSPVSAFDIWGQGTLVTVSS
VL: EIVLTQSPATLSLSPGERATLSCRASQSVSSTYLVWYQQKPGQAPRLLIYGASSRATGIPDRFSGSGSGTDFTLTISRLEPEDFAVYFCQQYAHSPRGYTFGQGTKLEIK
B17: Z051 (BRA138_59) (antibody, V domains shown)
VH: QVQLQESGPGLVKPSQTLSLTCTVSGVSISSGGYYYSWFRQLPGKGLEWIGHIYYTGNTHYNPSLRSRLTISVDTSKNQFSLKLSSVTAADTARYYCARAWCEYAAYCWFDPWGRGTLVTVSS
VL: EIVLTQSPGTLSLSPGERATLSCRASQSVTSSYLAWYQHKPGQAPRLLIYGASSRAPGIPDRFSGSGSGTDFTLTISRLEPEDFAVYWCQQYGRSPFTFGQGTKLEIK
B18: Z007 (MEX105_50) (antibody, V domains shown)
VH: EVQLLESGGGLVRPGGSLRLSCTASGFTFRRYAMAWVRQAPGKGLEWVSLIYDGDDSTYYAKSVKGRFAISRDNSKNTLSLQMNSLRAEDTAVYYCVKDRDNGWSSIVDWGQGTLVTVSS
VL: DIQMTQSPSTLSASVGDRVTITCRASHSISGWLAWYQQKPGKAPKLLIYQASILESGVPSRFSGSGSGTEFTLTIGSLQPEDFATYFCQQYSTFWTFGQGTKVEIK
B19: Z009 (MEX105_64) (antibody, V domains shown)
VH: B18 VH with D53N, K62E, A69T, I70V, K76Q, V93I, K98R
VL: B18 VL with H27R, S28T, S30G, G31S, S56G, G66V, G76R
B20: Z008 (MEX105_60) (antibody, V domains shown)
VH: B18 VH with Y32F, Y52W, D53N, K62E, K65R, A69T, K76H, N84R, V93I
VL: B18 VL with H27Q, S28T, S30G, G31N, I53V, G76S
B21: Z004 (MEX18_89) (antibody, V domains shown)
VH: EVQLLESGGGLVQPGGSLRLTCATSGFTFRDYAMSWVRQAPGKGLEWVSSYSGIDDSTYYADSVKGRFTISRDNSKSTLSLHMNSLRAEDSALYFCAKDRGPRGVGELFDSWGQGTLVTVSS
VL: B9 VL with M21I, N30S, R31K, H92Y

What follows are binders tested against T1, ZIKV envelope domain III ([..]), polyhistidine-AviTag, made in HEK-293-6E cells (Zika virus (KJ776791)) (assay: ELISA on ZIKV EDIII (Table A)). Conditions: remark: other sources report otherwise.
In the case of B1, the EC50 is reported as 1.68 µg/mL.
B2 gave an EC50 of 0.0172 µg/mL.
B3 was tested, and the EC50 was 0.61 µg/mL.
B4 was tested, and the EC50 was 0.0724 µg/mL.
B5 showed an EC50 of 0.982 µg/mL.
With B6 the EC50 was 0.311 µg/mL.
B7 was tested, and the EC50 was 0.216 µg/mL.
B8 was tested, and the EC50 was 0.0303 µg/mL.
Binder B9 has an EC50 of 0.0252 µg/mL.
Binder B10 has an EC50 of 0.038 µg/mL.
Work on B11 yielded an EC50 of 0.0255 µg/mL.
B12 was tested, and the EC50 was 0.0235 µg/mL.
B13 gave an EC50 of 0.0828 µg/mL.
With B14 the EC50 was 0.208 µg/mL.
With B15 the EC50 was 1.88 µg/mL.
For B16, the EC50 was 0.0131 µg/mL.
For B17, the EC50 was 1.86 µg/mL.
B18 gave an EC50 of 0.0346 µg/mL.
B19 gave an EC50 of 0.0284 µg/mL.
With B20 the EC50 was 0.0326 µg/mL.

What follows are binders tested against T1, ZIKV envelope domain III ([..]), … (assay: ELISA, biotinylated Z004 on ZEDIII, streptavidin-HRP). Conditions: remark: other sources report otherwise.
B21 was tested, and the EC50 was 0.16 µg/mL.
